B3: Escherichia coli EnvC (EcoEnvCΔ34) (natural protein, UniProt P37690 35-419, looked up)
chain: DERDQLKSIQADIAAKERAVRQKQQQRASLLAQLKKQEEAISEATRKLRETQNTLNQLNKQIDEMNASIAKLEQQKAAQERSLAAQLDAAFRQGEHTGIQLILSGEESQRGQRLQAYFGYLNQARQETIAQLKQTREEVAMQRAELEEKQSEQQTLLYEQRAQQAKLTQALNERKKTLAGLESSIQQGQQQLSELRANESRLRNSIARAEAAAKARAEREAREAQAVRDRQKEATRKGTTYKPTESEKSLMSRTGGLGAPRGQAFWPVRGPTLHRYGEQLQGELRWKGMVIGASEGTEVKAIADGRVILADWLQGYGLVVVVEHGKGDMSLYGYNQSALVSVGSQVRAGQPIALVGSSGGQGRPSLYFEIRRQGQAVNPQPWLGR

Tests used:
[1] = target: the molecule itself; assay: cryo-EM structure; FtsE^E163QX in peptidiscs incubated with EnvC, 2 mM ATP-Mg2+, 8 min at 37°C before freezing
[2] = target: B3; assay: as above; settings: both partners purified
[3] = target: the molecule itself; assay: cryo-EM structure; WT EcoFtsEX in peptidiscs, 3 mM ATPγS, 2 mM Mg2+, incubated 8 min at 37°C before freezing
[4] = target: T1, Escherichia coli FtsEX complex (wild type) in peptidiscs (Escherichia coli (str. K-12, MG1655), UniProt P0A9R7 1-222; P0AC30 1-352); assay: cell-based or functional assay
T1 sequence (looked up) 1: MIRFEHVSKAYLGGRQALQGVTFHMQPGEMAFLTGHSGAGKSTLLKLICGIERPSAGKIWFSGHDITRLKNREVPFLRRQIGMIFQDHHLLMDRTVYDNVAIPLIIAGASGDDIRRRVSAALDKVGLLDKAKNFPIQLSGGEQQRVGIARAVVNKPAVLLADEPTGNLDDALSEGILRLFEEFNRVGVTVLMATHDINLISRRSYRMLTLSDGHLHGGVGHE
T1 sequence (looked up) 2: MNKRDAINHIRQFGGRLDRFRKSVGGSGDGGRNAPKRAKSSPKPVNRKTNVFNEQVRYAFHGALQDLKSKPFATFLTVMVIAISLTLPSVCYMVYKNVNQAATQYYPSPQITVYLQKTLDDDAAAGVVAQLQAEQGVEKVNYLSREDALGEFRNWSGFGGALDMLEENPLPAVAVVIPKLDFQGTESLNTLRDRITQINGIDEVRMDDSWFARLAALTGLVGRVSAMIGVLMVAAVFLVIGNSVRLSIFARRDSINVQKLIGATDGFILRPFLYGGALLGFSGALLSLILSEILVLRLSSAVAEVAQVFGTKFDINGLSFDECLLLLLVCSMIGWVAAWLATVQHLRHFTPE

B1: Escherichia coli FtsE E163Q mutant, His-tagged (natural protein, Escherichia coli (str. K-12, MG1655), UniProt P0A9R7 1-222, looked up)
chain: MIRFEHVSKAYLGGRQALQGVTFHMQPGEMAFLTGHSGAGKSTLLKLICGIERPSAGKIWFSGHDITRLKNREVPFLRRQIGMIFQDHHLLMDRTVYDNVAIPLIIAGASGDDIRRRVSAALDKVGLLDKAKNFPIQLSGGEQQRVGIARAVVNKPAVLLADQPTGNLDDALSEGILRLFEEFNRVGVTVLMATHDINLISRRSYRMLTLSDGHLHGGVGHE
notes: FtsE, Escherichia coli str; K-12 MG1655, full length, with E163Q (cannot hydrolyse ATP); Made with the QuikChange kit on pTD68 [PT7::his6-FtsEX]; also called FtsE mutant (E163Q); ATPase mutant; source: E. coli BL21(DE3) pLysS, co-expressed with FtsX, purified (DDM, TALON, peptidiscs, SEC) with ATP; not shown: His6, N-terminal, kept
binding result [1]: binds

B2: Escherichia coli FtsX, full length (natural protein, Escherichia coli (str. K-12, MG1655), UniProt P0AC30 1-352, looked up)
chain: MNKRDAINHIRQFGGRLDRFRKSVGGSGDGGRNAPKRAKSSPKPVNRKTNVFNEQVRYAFHGALQDLKSKPFATFLTVMVIAISLTLPSVCYMVYKNVNQAATQYYPSPQITVYLQKTLDDDAAAGVVAQLQAEQGVEKVNYLSREDALGEFRNWSGFGGALDMLEENPLPAVAVVIPKLDFQGTESLNTLRDRITQINGIDEVRMDDSWFARLAALTGLVGRVSAMIGVLMVAAVFLVIGNSVRLSIFARRDSINVQKLIGATDGFILRPFLYGGALLGFSGALLSLILSEILVLRLSSAVAEVAQVFGTKFDINGLSFDECLLLLLVCSMIGWVAAWLATVQHLRHFTPE
notes: FtsX, Escherichia coli str; K-12 MG1655, full length; residues 1-52 not resolved in the maps; Two copies stand in the FtsEX complex; also called EcoFtsX; TMD
binding result [2]: binds | binding result [3]: binds

B3
fold increase of Vmax of ATP hydrolysis with EnvC over FtsEX alone [4]: ~2.2 fold

— doi:10.1101/2024.01.16.575974, “Structural insights into peptidoglycan hydrolysis by the FtsEX system in Escherichia coli during cell division” (bioRxiv, 2024)
